Measurements published in article PMC11910882.

Biological target: SlNSP2-GST (Solanum lycopersicum (tomato), UniProt A0A3Q7ITG8 1-487)
Test: EMSA

B1: pSlABCG44-WT (dsDNA)
DNA 1: GAGTGAATTTGTTTGGTTCAATTTTGTCC
DNA 2: GGACAAAATTGAACCAAACAAATTCACTC
- binding result: no binding
